Experiments:
[1] = target: T1, PDI9:mCherry-KDEL (Arabidopsis thaliana, UniProt O48773 25-440); experiment: FRET or BRET; FLIM-FRET in living Arabidopsis leaf mesophyll protoplasts coexpressing the GFP donor (on IRE1) and the mCherry acceptor (on PDI9), 16-18 h after transfection; GFP lifetime per region of interest; E = (1 - ti/t0) x 100% against single-transfected GFP:IRE1; details: partners not purified
T1 construct: Protein disulfide isomerase-9 (PDI9, PDI-M subfamily), Arabidopsis thaliana, At2g32920; made from the earlier construct PDI9:GFP-KDEL (Yuen et al., 2013) by exchanging GFP for mCherry; also called PDI9:Cherry-KDEL; PDI9:RFP; source: Arabidopsis leaf mesophyll protoplasts, transiently transfected, in living cells; not shown: mCherry-KDEL, C-terminal, kept
T1 sequence (looked up): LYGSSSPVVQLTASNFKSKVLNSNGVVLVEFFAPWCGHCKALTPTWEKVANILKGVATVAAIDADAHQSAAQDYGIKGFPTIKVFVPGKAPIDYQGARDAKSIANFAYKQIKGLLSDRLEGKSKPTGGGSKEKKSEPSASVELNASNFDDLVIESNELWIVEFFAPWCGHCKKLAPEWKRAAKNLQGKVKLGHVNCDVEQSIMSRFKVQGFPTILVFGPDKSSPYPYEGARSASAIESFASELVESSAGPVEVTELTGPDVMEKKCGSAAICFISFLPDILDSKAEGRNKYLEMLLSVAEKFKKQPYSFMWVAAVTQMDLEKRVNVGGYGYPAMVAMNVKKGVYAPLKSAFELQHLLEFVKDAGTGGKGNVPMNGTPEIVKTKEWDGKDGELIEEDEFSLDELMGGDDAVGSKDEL

[2] = target: T2, PDI9(C63A):mCherry-KDEL (Arabidopsis thaliana, UniProt O48773 25-440, C63A); experiment: as above; details: partners not purified
T2 construct: PDI9, Arabidopsis thaliana, At2g32920; as m1 with the second cysteine of the first thioredoxin active site (CGHC to CGHA) changed; Parent construct m1; source: Arabidopsis leaf mesophyll protoplasts, transiently transfected, in living cells; not shown: mCherry-KDEL, C-terminal, kept
T2 sequence (looked up): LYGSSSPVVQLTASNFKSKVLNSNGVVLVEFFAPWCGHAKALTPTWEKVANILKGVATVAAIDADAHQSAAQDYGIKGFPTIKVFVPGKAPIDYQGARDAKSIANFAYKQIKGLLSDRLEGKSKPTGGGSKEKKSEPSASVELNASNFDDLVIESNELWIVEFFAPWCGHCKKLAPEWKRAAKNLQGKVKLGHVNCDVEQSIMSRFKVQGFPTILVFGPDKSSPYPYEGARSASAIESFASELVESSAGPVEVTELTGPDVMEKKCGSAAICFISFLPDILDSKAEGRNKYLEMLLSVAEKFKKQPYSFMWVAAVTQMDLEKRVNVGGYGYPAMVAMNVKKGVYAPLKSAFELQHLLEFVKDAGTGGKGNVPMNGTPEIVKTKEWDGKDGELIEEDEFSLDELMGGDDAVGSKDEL

Binder	GFP donor fluorescence lifetime [1] [ns]	GFP donor fluorescence lifetime [2] [ns]
GFP : IRE1A (receptor, Arabidopsis thaliana, UniProt Q9C5S2 31-841, looked up, IRE1A (inositol-requiring enzyme-1 kinase), Arabidopsis thaliana, At2g17520; mature polypeptide region amplified from Col-0 genomic DNA and placed after the IRE1A signal peptide and GFP; Construct order: IRE1A signal peptide, GFP, mature IRE1A; source: Arabidopsis leaf mesophyll protoplasts, transiently transfected; in living cells (FLIM-FRET) and in protoplast extract (co-I.P.); not shown: GFP …) DDVTYPIVPSSPGRRSILQIRREPPTEPNTKLVVDRDGKVFLKQQPKETPYWSFSTGSPMHSLYQAPANNNTENATEITRPHIIVEYLNNSKAATTVDGYHNWTVQEFFRQKPLVTDDGVTLGSETTSAYLVDGRSGRLIHVYKSTGDTKITNALVKPASTEDFVNEPLLIRRTDSKLEHFSKTTGKLVWNLTVSHFRAALLCDPVFNSGYDLGPKLQTGIYMPLLCGSQIDVRGPEIVIRVLHDQPMNVKMLPSPSLNHFESENSIMPFGKARESRKLQEQHKQKYTYLFGQWSPVKLLAPLVLLGVVVSVFIKKFSSRGSDVSLKAGPSKKKKNRKSAKDTNRQSVPRGQDQFELIEGGQMLLGFNNFQSGATDGRKIGKLFLSSKEIAKGSNGTVVFEGIYEGRPVAVKRLVRSHHEVAFKEIQNLIASDQHTNIIRWYGVEYDQDFVYLSLERCTCSLDDLIKSYLEFSMTKVLENNDSTEGVAAYKIQLDSLEGVIKGNNFWKVGGHPSPLMLKLMRDIVCGIVHLHELGIVHRDLKPQNVLISKDMTLSAKLSDMGISKRMSRDMSSLGHLATGSGSSGWQAPEQLLQGRQTRAVDMFSLGCVIFYTITGCKHPFGDDLERDVNIVKNKVDLFLVEHVPEASDLISRLLNPDPDLRPSATEVLLHPMFWNSEMRLSFLRDASDRVELENREADSEILKAMESTAPVAIGGKWDEKLEPVFITNIGRYRRYKYDSIRDLLRVIRNKLNHHRELPPEIQELVGTVPEGFDEYFAVRFPKLLIEVYRVISLHCREEEVFRKYFKCDII	2.29	2.42
GFP : IRE1B (receptor, Arabidopsis thaliana, UniProt Q93VJ2 22-881, looked up, IRE1B, Arabidopsis thaliana, At5g24360; mature polypeptide region amplified from Col-0 genomic DNA and placed after the IRE1B signal peptide and GFP; Construct order: IRE1B signal peptide, GFP, mature IRE1B; source: Arabidopsis leaf mesophyll protoplasts, transiently transfected; in living cells (FLIM-FRET) and in protoplast extract (co-I.P.); not shown: GFP (eGFP S65T), N-terminal, kept) FKGSEISKFYDKSISNQISQSDRESGYVLVSTVDGSISLVDMSSQKLDWTFHTNEPIYSSYQAPHYHYTTDEERSSVLGDDFYMDCDKDWRLYNSSVRKGKRVNEIVDASEFIGTLPYTSTDRIVLGKKDTSVFLLDWKTGKLVKRYRMDELYSNTVVENDKEKAIVLSKEAPLLFGSGFKKSEDFPELVYIERKDFKIQCISKFGDVLWSVSYAKMEAKLQNHESVQFISGLSSSVGKNQFPLSYTTSVPMVQLRNVKYETLFPRLGFLDEALYLPFQDRKPNQLAIGDGNQLTLPGNKEAEEVLSLPLPETVISQITDIIDGSTKQAGFASKFSGLIVLIFGFCVTMLSVCGLFFYRLRQSIRIKEPYVSEVPIATPKKKKSKKNGTTKAVHKKENGFISGGNKDPSHEENEKRLLTAFPGLNNSSAEGYRVGKLFVSNKEIAKGSNGTVVLEGSYEGRLVAVKRLVQSHHDVAQKEILNLMASDKHSNIVRWYGVDQDEHFIYISLELCACSLNDLIYASSALLESPMASSSIHSIQINPIFENGKGVELWKENGHPSPVLLKLMRDIVAGLVHLHDIGIVHRDLKPQNVLIVKNSSLCAKLSDMGISKRLPADTSALTRNSTGLGSGSSGWQAPEQLRNERQTRAVDLFSLGCVLFFCMTGGKHPYGDNYERDVNVLNDQKDLFLIESLPEAVHLLTGLLNPDPNLRPRAQDVMHHPLFWNSDMRLSFLRDASDRVELENREEGSQLLAALESTAAVTLNGRWDEKLDSIFLDNIGRYRRYKFDSIRDLLRVIRNKLNHYRELPKELQELLGSVPEGFERYFSSRFPKLLIQVYTVLFDYCNNEEFFFKYSKTTVF	2.31	2.42

Reference: publication PMC11137178, “Protein disulfide isomerase-9 interacts with the lumenal region of the transmembrane endoplasmic reticulum stress sensor kinase, IRE1, to modulate the unfolded protein response in Arabidopsis” (Frontiers in Plant Science, 2024)
